Data reported in a protein production outcome set (Wang et al. 2014).

Test: label from the status in PepcDB records

Row | Sequence | protein production
1 | MSLLLTNHIGYERLGPKKAIIQTEQPHLSSYTAQLICATSEQTVATFAVEEQGKVANWHQGYFYLIDFSSFTDSGDYFLQVEDSRSSSFTVGEHILLEQTLSDVIHYFKSQRCGGVFDQQDRQVPVLNANQTADVHGGWYDASGDVSKYLSHLSYANYLNPQQTPMVVWNILKGLSLLEGSEDIAAFTRTRLIEEALFGADFLVRMQNEKGFFYMTVFDKWSKDTAQREICAYETQLGHKFDDYQAGFRQGGGVAIAALAAASRLGVHGEYDQQKYRNAAENGYWHLKEHNTQYLNDGEENIIDEYCALLASVELFKATKETRYLEESRLWAQRLVARQMSDEQIQHFWSANQDGSRPYFHAAEAGLPVIALCEYLAIEDDSVQTESVKRIVNRACEFEIKISNKVTNPFGYPRQYVKGVNESKRDAFFVAHNNESGYWWQGENARLGSLATMAYLAQPHIASQEIQQQLSVFAQDALNWIVGLNPYDMCMLDGHGRNNPDYLPQYGFFNAKGGVCNGITGGFEDEEDIAFNPPAQKDDMLQNWRWGEQWIPHGAWYLLAIMSQAQHISQLATSKNIKEGHHHHHH | not failed
2 | MSLNGKLDFSNRQARILYNKAIAKALFGLDIEYHPKGLVTTPISRYIFLKTFLRGGEVALEIGTGHTAMMALMAEKFFNCKVTATEVDEEFFEYARRNIERNNSNVRLVKSNGGIIKGVVEGTFDVIFSAPPYYDKPLGRVLTEREAIGGGKYGEEFSVKLLEEAFDHLNPGGKVALYLPDKEKLLNVIKERGIKLGYSVKDIKFKVGTRWRHSLIFFKGISEGHHHHHH | not failed
3 | MSLNHHPIIYLVDHQKDARAALSKLLSPLDVTIQCFASAESFMRQQISDDAIGMIIEAHLEDKKDSGIELLETLVKRGFHLPTIVMASSSDIPTAVRAMRASAADFIEKPFIEHVLVHDVQQIINGAKEGHHHHHH | not failed
4 | MSLQRVTNCIVVDHDQVLLLQKPRRGWWVAPGGKMEAGESILETVKREYWEETGITVKNPELKGIFSMVIFDEGKIVSEWMLFTFKATEHEGEMLKQSPEGKLEWKKKDEVLELPMAAGDKWIFKHVLHSDRLLYGTFHYTPDFELLSYRLDPEPQMKKKGIITITTDPNSSSVDKLAAALEHHHHHH | not failed
5 | MSLQTKILIIDGDKDNCQKLKGFLEEKGISIDLAYNCEEAIGKIFSNKYDLIFLEIILSDGDGWTLCKKIRNVTTCPIVYMTYINEDQSILNALNSGGDDYLIKPLNLEILYAKVKAILRRMNSYVNNEGHHHHHH | not failed
6 | MSLRAKLIWPILVFITAIFVASKGYTSYTAYQSSKHELVEQTRKLINNVSYSIKDALTTKNKRKAQTILADLIEQPNVSRVKLYDRANELFVLLEGSGESAPVPNQNERSKLDALGYALSAKFLYVLEPIIHEGHVIGSIRVTLSYIPIINAQHSFLKDAGVLLLILAAGGIIFYITIDRIILRPLLDLNGAIQDVTFGNASHVQIRHHSKDELGEVIHAFNRMMTKLRKREKQRQHSLATLEQKRAFSEEVIESIQYALVITDNLGTIIHSNAATQHIFQKTPEALENANIRDLIKTKMPNELSQILSRCLECDDIHLQNIDNEQQLSLTTRRLSNHGYLLFAIQDITEIEEAMNRQRVAGRVFEASQDGLIVLNHKGVITMVNPAVTKLVGLEIDQLVGQSFIQTIRWRKLQEMMPSIIESIENYGVWQGEVIEQNHLGLLVPMFARVNRIVKCENNGFYDLVIILTDLSNAKEMERLEYLAHHDALTGLANRSKFHLELEDLVQRSGYQRDEFAVLYLDLDGFKEINDTYGHDAGDEVLKRVADRLTSATRHSDLIARLSGDEFVMLVNPANQKVVTRIAEQLLESICAPIEYKGNELKVGVSIGVKLVGVNERDATRILKSADTAMYQAKKAGKGQAILMGCELQETV | failed
7 | MSLRIDPLGGESLKNQEVKGKKSGKTSRVGESKKKEFFDILEDVKEDHFEKLLEEAVEEVIDSGNELVRSPTPSNLKRYKNAIKEFLKLIEKKIYKLAGSFDMNSGRARLHLVVEEVNEKLMDLTEKIMKNEWQTINLAARIEEINGLILNLYREGHHHHHH | not failed
8 | MSLRQDILLNNNWNFRFSHQVQGDTRRVDLPHTWNAQDALAGKIDYKRGIGNYEKALYIRPEWKGKRLFLRFDGVNSIADVFINRKHIGEHRGGYGAFIFEITDLVKYGEKNSVLVRANNGEQLDIMPLVGDFNFYGGIYRDVHLLITDETCISPLDYASPGVYLVQEVVSPQEAKVCAKVNLSNRAADGTAELQVLVTDGTKVICKESRNVSLKQGADILEQLPLLIQKPRLWNGCEDPFMYQVSISLHKDGKQIDSVTQPLGLRYYHTDPDKGFFLNGKHLPLHGVCRHQDRAEVGNALRPQHHEEDVALMREMGVNAIRLAHYPQATYMYDLMDKHGIVTWAEIPFVGPGGYADKGFVDQASFRENGKQQLIELIRQHYNHPSICFWGLFNELKEVGDNPVEYVKELNALAKQEDPTRPTTSASNQDGNLNFITENIAWNRYDGWYGSTPKTLATFLDRTHKKHPELRIGISEYGAGASIYHQQDSLKQPSASGWWHPENWQTYYHMENWKIIAERPFVWGTFVWNMFDFGAAHRTEGDRPGINDKGLVTFDRKVRKDAFYFYKANWNKQEPMIYLAEKRCRLRYQPEQTFMAFTTAPEAELFVNGVSCGKQKADTYSTVVWKNVKLTSGENIIRVTTPGKKPLTDEVTVEYKEDREGHHHHHH | not failed
9 | MSLSKTFLNELANQALTNPNDFTKGEKKQESFLLEYVSANPTGPLHIGHARGAVFGDTLTRLARHLGYKFNTEYYVNDAGNQIYLLGLSILLSVKESILHENVEYPEQYYKGEYIVDLAKEAFEKFGKEFFSEENIPSLADWAKDKMLVLIKQNLEQAKIKIDSYVSERSYYDALNATLESLKEHKGIYEQEGKIWLASSQKGDEKDRVIIREDGRGTYLAADIVYHKDKMSRGYGKCINIWGADHHGYIPRMKAAMEFLGFDSNNLEIILAQMVSLLKDGEPYKMSKRAGNFILMSDVVDEIGSDALRYIFLSKKCDTHLEFDISDLQKEDSSNPVYYINYAHARIHQVFAKAGKKIDDVMKADLQSLNQDGVNLLFEALNLKAVLNDAFEARALQKIPDYLKNLAANFHKFYNENKVVGSANENDLLKLFSLVALSIKTAFSLMGIEAKNKMEHEGHHHHHH | not failed
10 | MSLSLPLFYAPDIEQSDRLPDDEAGHILRVLRMQAGDRLRLTDGRGSFFDAVIETADRKSCYVSVCGQESWQKPWRDRITIAIAPTKQSERMEWMLEKLVEIGVDEVVFIESEHSERRRIKAERLERIAISAMKQSLKASFPVIRVNIPIQTVIADTPKAAVRLIAYVDEAVRAEITQGRGYPSDFYHVGQDVLILIGPEGDFSPSEVESALLAGFAPVSLGESRLRTETAGLVACQWIHTLQACCRIGEGHHHHHH | not failed
11 | MSLSNVQVNSSQRDEDSFIKGVKDCIPTLLGYLSIGIAAGVIQKTAGLSIAEITLMSLILYAGSGQFIAAGMIATSSSLTAIIITIFFVNLRHILLSAALAPYFRHLSPFRNMLVGSLLTDETFGVAISEAAKKKQISERWMHGLNITAYINWLVANLAGAFLAQWISNPEEFGLGFALPAMFIGILILTMLGRSTIKLDIIVAIIAVVIAVGSSFMLSSSMGVIVATIIASTIGMVVEKWK | failed
12 | MSLSRRLTMHWFAQAPANIALIKYMGKKDENSNLPDNSSLSYTLSNLLSSVKLEKLPTKKDIWEPLTIPGAPEFNLSVEAQKRFIDHLVRLKEYFGYVGGFLIQSSNNFPHSSGLASSASSFAALTKCASIALSELTQKPLPSIDEQAQLSRLGSGSSCRSFYAPWALWTGDKVSAIDLPYKDLLHQVIVISSQEKEIPSRVAHKLVKTSPFYETRSERAEANLKLLLNAFENKDWTSIYQICWHEFLDMHQLFKTCEKPFSYITDNTLHILSVIEKFWNEKGDGPVVTMDAGPNVHLLYRSDQTDLARQFKSDHLVGNYDVLEGHHHHHH | not failed
13 | MSLSTWISYTIACILLISPPGPTVTYLITTSMTHGKKTAYEIVWGSFWGGLVCLILSFIGIGAILKTSGTLYAILRLLGIAYLIYLGIKSFLDANKVKDKTEKMVPPEKGEAFKNGFLLIFLNPKNIIFFASFLPQFINHNSPFLLQTTILSLTYLIVGLINDYLYSFFASNIGNVLGKHSEKWIAYIGGVAMILSAIIVVFQNF | failed
